Experimental data from patent US20160229920A1 (University of Texas, published 2016).

B1: bispecific trastuzumab with anti-HER3 Ab6 scFv (TAb6) (bispecific antibody)
heavy: not shown
light: DIELTQSPSSLSASVGDRVTITCRASQDVNTAVAWYQQKPGKAPKLLIYSASFLYSGVPSRFSGSRSGTDFTLTISSLQPEDFATYYCQQHYTTPPTFGQGTKLEIKRTVAAPSVFIFPPSDEQLKSGTASVVCLLNNFYPREAKVQWKVDNALQSGNSQESVTEQDSKDSTYSLSSTLTLSKADYEKHKVYACEVTHQGLSSPVTKSFNRGEC
notes: Morrison format, expressed in CHO cells; also called bispecific anti-HER2/HER3 antibody
B2: tetrameric anti-HER3 (Ab6tet) (antibody)
heavy: not shown
light: DIELTQPASVSGSPGQSITISCTGTSSDVGSYNVVSWYQQHPGKAPKLIIYEVSQRPSGVSNRFSGSKSGNTASLTISGLQTEDEADYYCCSYAGSSIFVIFGGGTKLEIKRTVAAPSVFIFPPSDEQLKSGTASVVCLLNNFYPREAKVQWKVDNALQSGNSQESVTEQDSKDSTYSLSSTLTLSKADYEKHKVYACEVTHQGLSSPVTKSFNRGEC
notes: Residues 1-19 are the leader; also called tetravalent anti-HER3 antibody; multivalent anti-HER3 antibody

How the values were obtained:
[1] = biological target: T1, HER3 on the plasma membrane of SK-BR-3 and BT-474 breast cancer cells (human, UniProt P21860 20-1342); experiment: fluorescence microscopy of SK-BR-3 cells treated with 50 nM antibody for 15 min at 37 C and chased 45 min; detection with Alexa 555 anti-human IgG, co-stain LAMP-1; the cells carry HER2 and HER3 and the staining of the bispecific is not separated between the two
T1 construct: whole, on cells; also called cell surface HER3
Procedure: Cells were fixed, permeabilized and stained for LAMP-1. […] Scale bars=2 μm.
For fixation, cells were treated with 1.7% (w/v) paraformaldehyde for 10 minutes at 37° C. and then permeabilized with 0.05% (v/v) saponin for 10 minutes at room temperature in PBS. […] Cells were washed twice with PBS between each incubation step and were stored at 4° C. in 1% BSA/PBS.

[2] = biological target: T1, HER3 on the plasma membrane of SK-BR-3 …; experiment: fluorescence microscopy of SK-BR-3 cells pulsed with 50 nM antibody for 5 min at 37 C and chased 0, 10 or 20 min; detection with Alexa 555 anti-human IgG, co-stain EEA-1 [Continued]

Binder | binding result [1] | binding result [2]
B1 | binds | –
B2 | – | binds
